Laboratory results reported in paper PMC4176348, “Structure analysis of free and bound states of an RNA aptamer against ribosomal protein S8 from Bacillus anthracis”.

Tests used:
[1] = molecular target: T1, ribosomal protein S8 (B. anthracis) (Bacillus anthracis, UniProt Q81VR6 1-132); assay: fluorescence anisotropy; 10 mM Mg acetate; details: protein: recombinant; tags: N-terminal 6xHis (pET28b NheI-XhoI); label: 5'-fluorescein
[2] = molecular target: ribosomal protein S8 (E. coli) (Escherichia coli, UniProt P0A7W7 1-130); assay: fluorescence anisotropy; 10 mM Mg acetate; details: protein: recombinant, tags: N-terminal 6xHis (pET28b NheI-XhoI), label: 5'-fluorescein, hairpin
[3] = molecular target: ribosomal protein S8 (B. anthracis) (Bacillus anthracis, UniProt Q81VR6 1-132); assay: fluorescence anisotropy; 10 mM Mg acetate; details: protein: recombinant; tags: N-terminal 6xHis (pET28b NheI-XhoI); label: 5'-fluorescein; hairpin, asymmetric internal loop
[4] = molecular target: T1, ribosomal protein S8 (B. anthracis); assay: 1:1 complex; details: protein: recombinant; tags: N-terminal 6xHis (pET28b NheI-XhoI)

B1: S8 RNA aptamer, fluorescein hairpin (structured_RNA)
RNA: CGCUGGCGGGUCAGUGAUCACUUCGGUGAUAUCAGACCCGGCAGCG
B1 gave a Kd [1] of 110 ± 30 nM and a Kd ([2]; symmetric internal loop) of 19 ± 4 nM.

B2: helix 21 16S rRNA S8 site, fluorescein hairpin (structured_RNA)
RNA: CGCUGGCGGGAUUAAGUCGACUUCGGUCGAAACUGGUCCCGGCAGCG
Work on B2 yielded a Kd [3] of 180 ± 60 nM and a Kd ([2]; asymmetric internal loop) of 28 ± 7 nM.

B3: RNA-2 aptamer (crystal) (structured_RNA)
RNA: GGGAUGCUCAGUGAUCCUUCGGGAUAUCAGGGCAUCCC
B3: binds [4].
